Paper PMC2878922 (2011)

What was measured:
CD47 ECD [1] = target: T1, CD47 ECD (Mus musculus, UniProt Q61735); assay: flow cytometry saturation binding on CD47-coated beads
T1 chain: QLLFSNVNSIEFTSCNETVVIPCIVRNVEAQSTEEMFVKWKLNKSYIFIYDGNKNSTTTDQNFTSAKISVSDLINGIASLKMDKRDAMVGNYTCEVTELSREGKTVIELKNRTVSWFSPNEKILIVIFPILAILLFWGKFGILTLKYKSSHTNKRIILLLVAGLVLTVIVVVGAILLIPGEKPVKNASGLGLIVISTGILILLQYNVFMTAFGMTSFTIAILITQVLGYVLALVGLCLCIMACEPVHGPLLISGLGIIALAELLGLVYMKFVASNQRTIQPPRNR

CD47 ECD [2] = target: CD47 ECD (Homo sapiens, UniProt Q08722); assay: as above
Chain of CD47 ECD (Homo sapiens, UniProt Q08722) (Q08722 19-323): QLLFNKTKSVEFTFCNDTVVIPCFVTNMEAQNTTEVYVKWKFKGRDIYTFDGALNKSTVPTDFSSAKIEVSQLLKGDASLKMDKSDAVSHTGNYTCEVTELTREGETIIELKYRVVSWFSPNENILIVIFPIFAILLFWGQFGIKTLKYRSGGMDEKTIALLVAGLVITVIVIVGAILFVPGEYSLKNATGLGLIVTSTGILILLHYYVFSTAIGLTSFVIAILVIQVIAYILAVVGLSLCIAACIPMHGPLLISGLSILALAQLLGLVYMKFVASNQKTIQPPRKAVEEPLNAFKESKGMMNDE

B1: SIRPα (variant 129_IgV, GST fusion) ECD (protein)
chain: KELKVTQPEKSVSVAAGDSTVLNCTLTSLLPVGPIRWYRGVGPSRLLIYSFAGEYVPRIRNVSDTTKRNNMDFSIRISNVTPADAGIYYCVKFQKGSSEPDTEIQSGGGTEVYVLAKPSPPEVSGPADRGIPDQKVNFTCKSHGFSPRNITLKWFKDGQELHPLETTVNPSGKNVSYNISSTVRVVLNSMDVNSKVICEVAHITLDRSPLRGIANLSNFIRVSPTVKVTQQSPTSMNQVNLTCRAERFYPEDLQLIWLENGNVSRNDTPKNLTKNTDGTYNYTSLFLVNSSAHREDVVFTCQVKHDQQPAITRNHTVLGFAHSSDQGSMQTFPDNNATHNWN
- Kd (CD47 ECD [1]): 0.22 µM
- Kd (CD47 ECD [2]): 0.22 µM
